# Measured values: publication PMC10883266, “TTLL12 is required for primary ciliary axoneme formation in polarized epithelial cells” (EMBO Reports, 2023)
# T1: recombinant GST-Rab19 (UniProt A4D1S5 1-217)
# T1 construct: small GTPase Rab19; loaded with GDP or GMP-PNP before the assay; Loaded with GDP or with GMP-PNP (non-hydrolyzable GTP analog); also called GST-Rab19 (GDP); GST-Rab19 (GMP-PNP); source: E. coli BL21 Codon Plus, purified as previously described (Jewett et al, 2021); not shown: GST, N-terminal, kept
# T1 sequence (looked up): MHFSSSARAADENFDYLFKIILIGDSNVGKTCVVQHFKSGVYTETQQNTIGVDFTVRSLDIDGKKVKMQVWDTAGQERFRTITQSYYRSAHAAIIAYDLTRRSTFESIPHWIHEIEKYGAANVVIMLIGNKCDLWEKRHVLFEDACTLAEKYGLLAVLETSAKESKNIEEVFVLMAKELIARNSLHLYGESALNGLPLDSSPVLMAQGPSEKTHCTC
# B1: recombinant 6His-TTLL12 (natural protein, human, UniProt Q14166 1-644, looked up)
# chain: MEAERGPERRPAERSSPGQTPEEGAQALAEFAALHGPALRASGVPERYWGRLLHKLEHEVFDAGEVFGIMQVEEVEEEEDEAAREVRKQQPNPGNELCYKVIVTRESGLQAAHPNSIFLIDHAWTCRVEHARQQLQQVPGLLHRMANLMGIEFHGELPSTEAVALVLEEMWKFNQTYQLAHGTAEEKMPVWYIMDEFGSRIQHADVPSFATAPFFYMPQQVAYTLLWPLRDLDTGEEVTRDFAYGETDPLIRKCMLLPWAPTDMLDLSSCTPEPPAEHYQAILEENKEKLPLDINPVVHPHGHIFKVYTDVQQVASSLTHPRFTLTQSEADADILFNFSHFKDYRKLSQERPGVLLNQFPCENLLTVKDCLASIARRAGGPEGPPWLPRTFNLRTELPQFVSYFQQRERWGEDNHWICKPWNLARSLDTHVTKSLHSIIRHRESTPKVVSKYIESPVLFLREDVGKVKFDIRYIVLLRSVRPLRLFVYDVFWLRFSNRAFALNDLDDYEKHFTVMNYDPDVVLKQVHCEEFIPEFEKQYPEFPWTDVQAEIFRAFTELFQVACAKPPPLGLCDYPSSRAMYAVDLMLKWDNGPDGRRVMQPQILEVNFNPDCERACRYHPTFFNDVFSTLFLDQPGGCHVTCLV
# notes: Tubulin Tyrosine Ligase-Like 12 (TTLL12), human cDNA (pLVX304-hTTLL12); the form rests on the printed cloning primers; also called Tubulin Tyrosine Ligase-Like 12; source: Sf9 cells (baculovirus, pFastBac HTA), purified (nickel beads, dialysed into PBS with 1 mM DTT); not shown: 6His, …
# What was measured:
# [1] = molecular target: recombinant 6His-TTLL12 (human) (UniProt Q14166); assay: pull-down; 10 μg (0.18 μM) untagged porcine brain tubulin alone or with 10 μg 6His-TTLL12 in 20 mM HEPES pH 7.4, 150 mM KCl, overnight at 4 °C to prevent polymerization; Ni beads; washes with 300 mM KCl, 0.1% Triton X-100; Coomassie blue staining
# recombinant GST-Rab19 = molecular target: T1, recombinant GST-Rab19; assay: pull-down; 10 μg GST-Rab19 loaded with GDP or GMP-PNP + 10 μg 6His-TTLL12 in 20 mM HEPES pH 7.4, 150 mM NaCl, 1% BSA, 1 h room temperature; glutathione beads; washes with 300 mM NaCl, 0.1% Triton X-100; Coomassie blue staining; conditions: both partners purified
Molecule,fold increase in tubulin co-precipitation with Ni beads over tubulin alone [1],fold increase in TTLL12 binding over a GST-only control (recombinant GST-Rab19)
untagged purified porcine brain tubulin (α/β-tubulin heterodimer) (from UniProt P02554 1-445) (complex),3 fold,
B1,,~5 fold
